Data as given in paper PMC5826766.

Test system: CN(CC(=O)O)C(=O)CN
Test: concentration-dependent cellular uptake, HPLC-MS/MS, mock-corrected, Km
Assay type: cell-based, Homo sapiens

hPHT1 (human peptide/histidine transporter 1, SLC15A4) (Homo sapiens; L14A/L15A/L318A/V319A)
Km: 1690 ± 300 µM | Vmax: 0.0001 µmol/min/mg | Vmax/Km: 0.0592 µL/min/mg
